Source: the supplement of paper PMC9732359
± gives the uncertainty stated by the source.

Experiment: protein stability index of a GFP-peptide fusion (yeast GPS) (PSI 1-4); higher = more stable; sorted into four equal gates, so the index is relative within each strain
Procedure, shortened: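 The protein stability index of a peptide was calculated by multiplying its read frequency in each gate by that gate's number and adding the products. The peptides were tiled 17-residue stretches of yeast proteins, fused downstream of GFP on a Cherry-expressing plasmid and carried in yeast as a pooled library. Mid-log cultures in leucine-free medium were sorted into four equal gates by GFP/Cherry ratio, and each gate's plasmids were PCR-amplified and Illumina-sequenced.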

Sequence | protein stability index (doa10∆) | protein stability index (pdr5∆) | protein stability index (san1∆) | protein stability index (ubr1∆)
RRSKQLINLAKTRVGSV [RPC82] | 3.25 ± 0.053 | 2.91 ± 0.062 | 2.95 ± 0.049 | 3.25 ± 0.044
RRLHDENLMVQRTCLMT [YCS4] | 2.43 ± 0.064 | 2.44 ± 0.057 | 2.45 ± 0.058 | 2.24 ± 0.047
SLLGGFDENIARDIISH [PCI8] | 2.83 ± 0.058 | 2.83 ± 0.048 | 2.71 ± 0.044 | 2.82 ± 0.046
FQKETNMKVTILHGSKS [PRP28] | – | 3.38 ± 0.29 | 3.21 ± 0.093 | 3.18 ± 0.21
LANRSKENFILDSLMKT [YJL039C/NUP192] | 2.47 ± 0.095 | 2.64 ± 0.12 | 3.03 ± 0.12 | 2.69 ± 0.069
TADAEILINTARIHAQN [PRE9] | 2.92 ± 0.094 | 2.85 ± 0.073 | 2.83 ± 0.099 | 2.96 ± 0.072
RYLVGGNKIQKVLLDSK [RPS7A] | 1.24 ± 0.084 | 2.01 ± 0.18 | 1.51 ± 0.25 | 1.7 ± 0.17
PNSERSGTPTLKKNIEP [YOR098C/NUP1] | 3.32 ± 0.14 | 3.26 ± 0.097 | 2.72 ± 0.24 | 3.07 ± 0.082
TEKEPVPAVVDDPLENM [SNF6] | 2.85 ± 0.073 | 3.12 ± 0.08 | 2.69 ± 0.082 | 2.88 ± 0.068
EDCVEEFFHLQHYLDTA [QCR6] | 3.21 ± 0.085 | 3.4 ± 0.081 | 3.13 ± 0.063 | 3.31 ± 0.068
QFEKSRKVSGPRALQPS [RET1] | 2.98 ± 0.085 | 3.19 ± 0.11 | 2.94 ± 0.061 | 3.06 ± 0.066
PLVLLQQIPLLCYMAPM [POP3] | 1.72 ± 0.053 | 1.59 ± 0.061 | 1.85 ± 0.074 | 1.92 ± 0.054
NRGVKLEIVYGYALRDV [RPP1] | 2.54 ± 0.084 | 2.64 ± 0.077 | 2.46 ± 0.092 | 3.04 ± 0.065
SSQNNSELAPIEEHPTV [IRR1] | – | – | – | 3.14 ± 0.17
GQEYPRIIGLSATLPNY [BRR2] | 1.9 ± 0.047 | 2.2 ± 0.044 | 1.96 ± 0.057 | 1.81 ± 0.046
DVVGTLSRNGKPVMEVT [FAS1] | 2.62 ± 0.13 | 2.81 ± 0.13 | 2.65 ± 0.12 | 2.63 ± 0.08
CAMSGLTADARSMIEHA [PUP2] | 2.3 ± 0.13 | 2.94 ± 0.18 | – | 2.64 ± 0.12
PRFLNKQERSKQERLKE [PRP28] | 1.91 ± 0.091 | 2.53 ± 0.13 | 3.34 ± 0.11 | 2.13 ± 0.089
LLDKYGKTGLSNMILGS [YML103C/NUP188] | 2.34 ± 0.078 | 2.75 ± 0.11 | 2.26 ± 0.095 | 2.12 ± 0.058
HAMGGREGLIDTAVKTA [RPO21] | 1.24 ± 0.076 | 1.35 ± 0.065 | 1.23 ± 0.15 | 1.17 ± 0.054
DDDQIESLKKSPIFEVL [ARP9] | 3.16 ± 0.064 | 3.15 ± 0.046 | 3.06 ± 0.033 | 3.2 ± 0.04
GSGAANENPYNNGVSNL [COR1] | 3.02 ± 0.17 | 2.94 ± 0.14 | 3.15 ± 0.11 | 2.79 ± 0.17
DDHNGEVWSVSWNLTGT [YGL100W/SEH1] | 2.73 ± 0.069 | 3.04 ± 0.073 | 2.64 ± 0.096 | 2.73 ± 0.085
FPLCVHLVSNELEQLSS [RPL10] | 2.7 ± 0.079 | 2.71 ± 0.065 | 2.52 ± 0.089 | 2.44 ± 0.049
ENLFSKEEVCQGMEGTV [YMR129W/POM152] | 2.5 ± 0.073 | 2.95 ± 0.073 | 2.92 ± 0.054 | 2.65 ± 0.089
GLRTENVLDYFAESPFF [MED6] | 3.35 ± 0.12 | 3.25 ± 0.18 | 2.94 ± 0.077 | 2.83 ± 0.047
ELNSSEDILEDMNSNLQ [SMC1] | 3.38 ± 0.072 | 3.32 ± 0.072 | 3.24 ± 0.045 | 3.2 ± 0.054
